B1: Nephronectin (Mus musculus), Q91V88 (parent)
chain: MAVLLAAVLASSLYLQVAADFDGRWPRQIVSSIGLCRYGGRIDCCWGWARQSWGQCQPVCQPQCKHGECVGPNKCKCHPGFAGKTCNQDLNECGLKPRPCKHRCMNTFGSYKCYCLNGYMLLPDGSCSSALSCSMANCQYGCDVVKGQVRCQCPSPGLQLAPDGRTCVDIDECATGRVSCPRFRQCVNTFGSYICKCHTGFDLMYIGGKYQCHDIDECSLGQHQCSSYARCYNIHGSYKCQCRDGYEGDGLNCVYIPKVMIEPSGPIHMPERNGTISKGDGGHANRIPDAGSTRWPLKTPYIPPVITNRPTSKPTTRPTPNPTPQPTPPPPPPLPTEPRTTPLPPTPERPSTRPTTIAPATSTTTRVITVDNRIQTDPQKPRGDVFIPRQPTNDLFEIFEIERGVSADEEVKDDPGILIHSCNFDHGLCGWIREKDSDLHWETARDPAGGQYLTVSAAKAPGGKAARLVLRLGHLMHSGDLCLSFRHKVTGLHSGTLQVFVRKHGTHGAALWGRNGGHGWRQTQITLRGADVKSVIFKGEKRRGHTGEIGLDDVSLKRGRC

Variants of: B1
Details: with agrin_human AGRN

Row | effect of a mutation on the interaction | Variant
1 | decreasing interaction | R528A
2 | decreasing interaction | R502A;K503A;H504A
3 | decreasing interaction | R471A

More lines, now with the values behind:

Row | Variant | effect of a mutation on the interaction
4 | R445A | decreasing interaction
5 | K459A;K464A | decreasing interaction
6 | K557A;R558A;G559A;R560A | decreasing interaction
7 | K541A;R542A;R543A | decreasing interaction

From IntAct's records for PubMed 23357641
